Measured values: patent US20180016344A1 (MacroGenics, published 2018)

Experiments:
human DR5 = target: T1, human DR5 (human, UniProt O14763 56-440); experiment: antibody titration read as MFI (log axis) against concentration in nM; the text does not describe the assay format or how DR5 was presented (Example 2)
T1 construct: also called Death Receptor 5; TRAIL-R2

histidine tagged TRAIL = target: T2, histidine tagged TRAIL (UniProt P50591 114-281, limits assumed); experiment: ELISA, biotinylated antibody on TRAIL-His coat
T2 construct: also called TRAIL-His; TRAIL ligand; not shown: histidine tag

[1] = target: T3, His-tagged cynomolgus monkey DR5 (cynomolgus monkey); experiment: Biacore (SPR); DR5×CD3 diabody with His-tagged cynomolgus monkey DR5
T3 construct: also called His-tagged DR5 (cynomolgus monkey)
Procedure: Bispecific DR5×CD3 diabodies were incubated with His-tagged DR5 and the kinetics of binding was determined via Biacore analysis.

T1 sequence (O14763 other isoform, or with tags, fused parts or gaps): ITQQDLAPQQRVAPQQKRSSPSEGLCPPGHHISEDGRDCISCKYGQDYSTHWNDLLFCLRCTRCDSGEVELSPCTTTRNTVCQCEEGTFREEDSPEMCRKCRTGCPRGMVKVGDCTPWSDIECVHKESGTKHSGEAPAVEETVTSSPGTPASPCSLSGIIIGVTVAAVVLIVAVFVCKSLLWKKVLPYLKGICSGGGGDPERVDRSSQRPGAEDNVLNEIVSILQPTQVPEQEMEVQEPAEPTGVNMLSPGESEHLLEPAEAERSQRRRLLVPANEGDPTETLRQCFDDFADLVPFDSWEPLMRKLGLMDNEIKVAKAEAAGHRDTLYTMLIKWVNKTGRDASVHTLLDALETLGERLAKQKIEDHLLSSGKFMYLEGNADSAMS

Binder | EC50 (read off the curve) (human DR5) | binding result (histidine tagged TRAIL) | Kd [1]
DR5 mAb 1 (antibody, V domains shown, also called anti-human DR5 monoclonal antibody DR5 mAb 1) VH: EVKFLESGGGLVQPGGSLKLSCVASGFDFSRYWMSWVRQAPGKGLEWIGEINPDSNTINYTPSLKDKFIISRDNAKNTLYLQMTKVRSEDTALYYCTRRAYYGNPAWFAYWGQGTLVTVSS VL: DIVLTQSPASLAVSLGQRATISCRASKSVSSSGYSYMHWYQQKPGQPPKVLIFLSSNLDSGVPARFSGSGSGTDFTLNIHPVEDGDAATYYCQHSRDLPPTFGGGTKLEIK | ~1 nM | no binding | –
DR5 mAb 3×CD3 mAb 2 (bispecific antibody, also called diabody with the VL and VH Domains of drozitumab) chain 1: SELTQDPAVSVALGQTVRITCSGDSLRSYYASWYQQKPGQAPVLVIYGANNRPSGIPDRFSGSSSGNTASLTITGAQAEDEADYYCNSADSSGNHVVFGGGTKLTVLGGGGSGGGGEVQLVESGGGLVQPGGSLRLSCAASGFTFSTYAMNWVRQAPGKGLEWVGRIRSKYNNYATYYADSVKGRFTISRDDSKNSLYLQMNSLKTEDTAVYYCVRHGNFGNSYVSWFAYWGQGTLVTVSSASTKGEVAACEKEVAALEKEVAALEKEVAALEK chain 2: QAVVTQEPSLTVSPGGTVTLTCRSSTGAVTTSNYANWVQQKPGQAPRGLIGGTNKRAPWTPARFSGSLLGGKAALTITGAQAEDEADYYCALWYSNLWVFGGGTKLTVLGGGGSGGGGEVQLVQSGGGVERPGGSLRLSCAASGFTFDDYAMSWVRQAPGKGLEWVSGINWQGGSTGYADSVKGRVTISRDNAKNSLYLQMNSLRAEDTAVYYCAKILGAGRGWYFDYWGKGTTVTVSSASTKGKVAACKEKVAALKEKVAALKEKVAALKE | – | – | 13.3 nM
DR5 mAb 1×CD3 mAb 2 (bispecific antibody, also called bispecific DR5×CD3 diabody) chain 1: DIVLTQSPASLAVSLGQRATISCRASKSVSSSGYSYMHWYQQKPGQPPKVLIFLSSNLDSGVPARFSGSGSGTDFTLNIHPVEDGDAATYYCQHSRDLPPTFGGGTKLEIKGGGSGGGGEVQLVESGGGLVQPGGSLRLSCAASGFTFSTYAMNWVRQAPGKGLEWVGRIRSKYNNYATYYADSVKGRFTISRDDSKNSLYLQMNSLKTEDTAVYYCVRHGNFGNSYVSWFAYWGQGTLVTVSSASTKGEVAACEKEVAALEKEVAALEKEVAALEK chain 2: QAVVTQEPSLTVSPGGTVTLTCRSSTGAVTTSNYANWVQQKPGQAPRGLIGGTNKRAPWTPARFSGSLLGGKAALTITGAQAEDEADYYCALWYSNLWVFGGGTKLTVLGGGGSGGGGEVKFLESGGGLVQPGGSLKLSCVASGFDFSRYWMSWVRQAPGKGLEWIGEINPDSNTINYTPSLKDKFIISRDNAKNTLYLQMTKVRSEDTALYYCTRRAYYGNPAWFAYWGQGTLVTVSSASTKGKVAACKEKVAALKEKVAALKEKVAALKE | – | – | 32.5 nM
DR5 mAb 2 (antibody, V domains shown, It is a murine antibody; also called murine anti-human antibody DR5 mAb 2; DR mAb 2) VH: KVQLQQSGAELVKPGASVKLSCKASGYTFTEYILHWVKQKSGQGLEWIGWFYPGNNNIKYNEKFKDKATLTADKSSSTVYMELSRLTSEDSAVYFCARHEQGPGYFDYWGQGTTLTVSS VL: DIVMTQSHKFMSTSVGDRVSITCKASQDVNTAVAWYQQKPGQSPKLLIYWASTRHTGVPDRFTGSGSGTDYTLTIKSVQAEDLTLYYCQQHYITPWTFGGGTKLEIK | – | no binding | –
DR5 mAb 4×CD3 mAb 2 (bispecific antibody, also called diabody with the VL and VH Domains of conatumumab) chain 1: EIVLTQSPGTLSLSPGERATLSCRASQGISRSYLAWYQQKPGQAPSLLIYGASSRATGIPDRFSGSGSGTDFTLTISRLEPEDFAVYYCQQFGSSPWTFGQGTKVEIKGGGSGGGGEVQLVESGGGLVQPGGSLRLSCAASGFTFSTYAMNWVRQAPGKGLEWVGRIRSKYNNYATYYADSVKGRFTISRDDSKNSLYLQMNSLKTEDTAVYYCVRHGNFGNSYVSWFAYWGQGTLVTVSSASTKGEVAACEKEVAALEKEVAALEKEVAALEK chain 2: QAVVTQEPSLTVSPGGTVTLTCRSSTGAVTTSNYANWVQQKPGQAPRGLIGGTNKRAPWTPARFSGSLLGGKAALTITGAQAEDEADYYCALWYSNLWVFGGGTKLTVLGGGGSGGGGQVQLQESGPGLVKPSQTLSLTCTVSGGSISSGDYFWSWIRQLPGKGLEWIGHIHNSGTTYYNPSLKSRVTISVDTSKKQFSLRLSSVTAADTAVYYCARDRGGDYYYGMDVWGQGTTVTVSSASTKGKVAACKEKVAALKEKVAALKEKVAALKE | – | – | 16.4 nM
DR5 mAb 2×CD3 mAb 2 (bispecific antibody, also called DR5 mAb 2×CD3 mAb 2 diabody) chain 1: DIVMTQSHKFMSTSVGDRVSITCKASQDVNTAVAWYQQKPGQSPKLLIYWASTRHTGVPDRFTGSGSGTDYTLTIKSVQAEDLTLYYCQQHYITPWTFGGGTKLEIKGGGSGGGGEVQLVESGGGLVQPGGSLRLSCAASGFTFSTYAMNWVRQAPGKGLEWVGRIRSKYNNYATYYADSVKGRFTISRDDSKNSLYLQMNSLKTEDTAVYYCVRHGNFGNSYVSWFAYWGQGTLVTVSSASTKGEVAACEKEVAALEKEVAALEKEVAALEK chain 2: QAVVTQEPSLTVSPGGTVTLTCRSSTGAVTTSNYANWVQQKPGQAPRGLIGGTNKRAPWTPARFSGSLLGGKAALTITGAQAEDEADYYCALWYSNLWVFGGGTKLTVLGGGGSGGGGKVQLQQSGAELVKPGASVKLSCKASGYTFTEYILHWVKQKSGQGLEWIGWFYPGNNNIKYNEKFKDKATLTADKSSSTVYMELSRLTSEDSAVYFCARHEQGPGYFDYWGQGTTLTVSSASTKGKVAACKEKVAALKEKVAALKEKVAALKE | – | – | 0.42 nM
